Assay results: patent US20240261333A1, “NOVEL TARGETS FOR ENHANCING ANTI-TUMOR IMMUNITY” (THE BROAD INSTITUTE, INC., priority 2021, published 2024)

Experiments:
DNAJA2 = DNAJA2 (UniProt O60884); test: co-IP, IgG control, N-FLAG B3GNT2 cell lysate, mass spectrometry
RPL27A = RPL27A (UniProt P46776); test: as above
SSRP1 = SSRP1 (UniProt Q08945); test: as above
MTDH = MTDH (UniProt Q86UE4); test: as above
HNRNPU = HNRNPU (UniProt Q00839); test: as above
DEFA3 = DEFA3 (UniProt P59666); test: as above
DDX20 = DDX20 (UniProt Q9UHI6); test: as above
PSMA7 = PSMA7 (UniProt O14818); test: as above
TAGLN = TAGLN (UniProt Q01995); test: as above
SRSF1 = SRSF1 (UniProt Q07955); test: as above
HIST1H1E = HIST1H1E (UniProt P10412); test: as above
PBXIP1 = PBXIP1 (UniProt Q96AQ6); test: as above
RPL5 = RPL5 (UniProt P46777); test: as above
TXN = TXN (UniProt P10599); test: as above
NCCRP1 = NCCRP1 (UniProt Q6ZVX7); test: as above
RPL19 = RPL19 (UniProt P84098); test: as above
RPS2 = RPS2 (UniProt P15880); test: as above
SRSF3 = SRSF3 (UniProt P84103); test: as above
RPS23 = RPS23 (UniProt P62266); test: as above
RPL3 = RPL3 (UniProt P39023); test: as above
LIMA1 = LIMA1 (UniProt Q9UHB6); test: as above
RPS19 = RPS19 (UniProt P39019); test: as above
RPS8 = RPS8 (UniProt P62241); test: as above
GALNT2 (human) = GALNT2 (human) (UniProt Q10471); test: co-IP with anti-FLAG, mass spectrometry; lysate of cells with C-FLAG B3GNT2
SDF4 (human) = SDF4 (human) (UniProt Q9BRK5); test: as above
ILF3 (human) = ILF3 (human) (UniProt Q12906); test: as above
RPL26 (human) = RPL26 (human) (UniProt P61254); test: as above
ZC3HAV1 (human) = ZC3HAV1 (human) (UniProt Q7Z2W4); test: as above
CCT7 (human) = CCT7 (human) (UniProt Q99832); test: as above
ARF4 (human) = ARF4 (human) (UniProt P18085); test: as above
UGGT1 (human) = UGGT1 (human) (UniProt Q9NYU2); test: as above
STAU2 (human) = STAU2 (human) (UniProt Q9NUL3); test: as above
MAGT1 (human) = MAGT1 (human) (UniProt Q9H0U3); test: as above
EPRS (human) = EPRS (human) (UniProt P07814); test: as above
SLC27A4 (human) = SLC27A4 (human) (UniProt Q6P1M0); test: as above
SLC25A5 (human) = SLC25A5 (human) (UniProt P05141); test: as above
RPS4X (human) = RPS4X (human) (UniProt P62701); test: as above
CTHRC1 (human) = CTHRC1 (human) (UniProt Q96CG8); test: as above
EIF4A1 (human) = EIF4A1 (human) (UniProt P60842); test: as above

Chain of DNAJA2 (O60884 1-409 limits assumed): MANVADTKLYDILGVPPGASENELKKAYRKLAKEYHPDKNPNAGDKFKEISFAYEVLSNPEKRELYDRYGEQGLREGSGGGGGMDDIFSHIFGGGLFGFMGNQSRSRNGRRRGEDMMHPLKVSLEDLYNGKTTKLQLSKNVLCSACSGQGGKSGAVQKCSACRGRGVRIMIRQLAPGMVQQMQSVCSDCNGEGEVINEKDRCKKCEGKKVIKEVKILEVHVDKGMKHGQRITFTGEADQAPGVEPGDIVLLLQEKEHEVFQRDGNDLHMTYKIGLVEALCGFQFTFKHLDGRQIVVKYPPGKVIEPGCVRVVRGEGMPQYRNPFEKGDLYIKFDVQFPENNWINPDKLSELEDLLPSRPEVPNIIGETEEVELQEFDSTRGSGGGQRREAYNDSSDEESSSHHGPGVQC
Chain of DEFA3 (P59666 65-94 limits assumed): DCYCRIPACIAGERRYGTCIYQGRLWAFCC
Chain of SLC27A4 (human) (Q6P1M0 whole entry): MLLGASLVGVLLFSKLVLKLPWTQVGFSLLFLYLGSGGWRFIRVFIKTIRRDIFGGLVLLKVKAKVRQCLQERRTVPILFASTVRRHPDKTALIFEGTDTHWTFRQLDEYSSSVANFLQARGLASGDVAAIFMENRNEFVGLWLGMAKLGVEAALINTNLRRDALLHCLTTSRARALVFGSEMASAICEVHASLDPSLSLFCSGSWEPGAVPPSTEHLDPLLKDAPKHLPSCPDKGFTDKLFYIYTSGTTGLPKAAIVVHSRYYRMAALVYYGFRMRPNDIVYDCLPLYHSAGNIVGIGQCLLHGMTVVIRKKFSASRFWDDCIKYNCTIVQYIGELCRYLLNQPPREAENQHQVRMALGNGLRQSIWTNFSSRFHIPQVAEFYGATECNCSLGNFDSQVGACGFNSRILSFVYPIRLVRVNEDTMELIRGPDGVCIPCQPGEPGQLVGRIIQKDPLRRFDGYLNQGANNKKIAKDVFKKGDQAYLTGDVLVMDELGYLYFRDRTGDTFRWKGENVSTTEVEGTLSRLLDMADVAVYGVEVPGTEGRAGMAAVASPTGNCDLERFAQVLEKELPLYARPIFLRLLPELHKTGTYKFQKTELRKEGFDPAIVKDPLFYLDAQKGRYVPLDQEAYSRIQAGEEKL
Chain of SSRP1 (Q08945 2-709 limits assumed): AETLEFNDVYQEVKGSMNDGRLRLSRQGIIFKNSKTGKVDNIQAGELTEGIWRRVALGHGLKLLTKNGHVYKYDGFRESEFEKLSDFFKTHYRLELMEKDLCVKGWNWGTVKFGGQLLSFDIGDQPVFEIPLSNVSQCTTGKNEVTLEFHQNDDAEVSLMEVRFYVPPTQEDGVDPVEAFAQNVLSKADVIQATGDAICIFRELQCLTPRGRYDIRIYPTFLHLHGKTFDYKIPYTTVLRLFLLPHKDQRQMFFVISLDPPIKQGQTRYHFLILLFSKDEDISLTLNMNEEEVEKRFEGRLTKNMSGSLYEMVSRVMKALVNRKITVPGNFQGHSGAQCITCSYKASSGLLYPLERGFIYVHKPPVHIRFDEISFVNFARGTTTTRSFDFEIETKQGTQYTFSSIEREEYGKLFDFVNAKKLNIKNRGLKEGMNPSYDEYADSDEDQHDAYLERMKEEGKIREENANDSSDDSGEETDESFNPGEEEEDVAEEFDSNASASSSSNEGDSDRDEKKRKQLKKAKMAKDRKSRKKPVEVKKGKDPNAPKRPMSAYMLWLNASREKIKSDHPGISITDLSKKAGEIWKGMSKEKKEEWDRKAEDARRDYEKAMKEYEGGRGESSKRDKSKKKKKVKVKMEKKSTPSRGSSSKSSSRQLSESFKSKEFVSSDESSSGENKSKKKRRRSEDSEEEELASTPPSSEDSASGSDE
Chain of NCCRP1 (Q6ZVX7 whole entry): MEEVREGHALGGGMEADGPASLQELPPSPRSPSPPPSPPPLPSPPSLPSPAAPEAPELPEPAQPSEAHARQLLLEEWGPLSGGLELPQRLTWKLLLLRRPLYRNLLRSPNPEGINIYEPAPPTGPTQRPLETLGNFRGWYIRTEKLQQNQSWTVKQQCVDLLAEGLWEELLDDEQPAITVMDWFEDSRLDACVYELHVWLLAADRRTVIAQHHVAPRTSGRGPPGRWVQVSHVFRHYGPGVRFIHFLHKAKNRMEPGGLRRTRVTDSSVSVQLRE
Chain of TXN (P10599 2-105 limits assumed): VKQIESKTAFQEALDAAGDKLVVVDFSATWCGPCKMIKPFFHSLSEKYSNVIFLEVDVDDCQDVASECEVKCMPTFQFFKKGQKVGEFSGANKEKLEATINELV
Chain of SRSF1 (Q07955 2-248 limits assumed): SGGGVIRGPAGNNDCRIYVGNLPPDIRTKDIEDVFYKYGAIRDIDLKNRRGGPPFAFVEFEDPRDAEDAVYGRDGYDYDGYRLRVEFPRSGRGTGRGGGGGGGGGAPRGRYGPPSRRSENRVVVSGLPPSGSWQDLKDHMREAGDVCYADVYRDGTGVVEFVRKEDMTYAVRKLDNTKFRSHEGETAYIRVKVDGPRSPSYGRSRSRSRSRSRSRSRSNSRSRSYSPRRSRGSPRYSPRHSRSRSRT
Chain of SLC25A5 (human) (P05141 2-298 limits assumed): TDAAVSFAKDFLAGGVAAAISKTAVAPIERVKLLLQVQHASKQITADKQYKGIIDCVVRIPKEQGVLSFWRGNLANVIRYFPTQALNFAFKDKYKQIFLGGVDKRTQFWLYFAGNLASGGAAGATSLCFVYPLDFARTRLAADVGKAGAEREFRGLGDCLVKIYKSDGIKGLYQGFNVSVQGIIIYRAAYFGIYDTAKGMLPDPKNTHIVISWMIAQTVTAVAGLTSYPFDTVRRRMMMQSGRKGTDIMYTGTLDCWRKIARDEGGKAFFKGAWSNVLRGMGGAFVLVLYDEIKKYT
Chain of CCT7 (human) (Q99832 45-543 limits assumed): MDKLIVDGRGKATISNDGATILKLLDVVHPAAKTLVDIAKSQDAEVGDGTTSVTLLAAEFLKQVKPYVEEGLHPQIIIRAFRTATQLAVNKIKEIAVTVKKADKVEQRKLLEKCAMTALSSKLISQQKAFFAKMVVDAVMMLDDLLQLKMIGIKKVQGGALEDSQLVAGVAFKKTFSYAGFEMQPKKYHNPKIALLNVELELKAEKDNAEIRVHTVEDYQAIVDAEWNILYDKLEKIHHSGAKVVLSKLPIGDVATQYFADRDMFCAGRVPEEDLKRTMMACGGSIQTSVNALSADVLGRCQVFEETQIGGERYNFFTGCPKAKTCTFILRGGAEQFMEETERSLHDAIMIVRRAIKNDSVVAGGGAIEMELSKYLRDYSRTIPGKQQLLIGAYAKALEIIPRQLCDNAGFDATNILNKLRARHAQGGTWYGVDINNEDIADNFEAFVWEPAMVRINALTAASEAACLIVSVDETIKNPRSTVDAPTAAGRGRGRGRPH
Chain of STAU2 (human) (Q9NUL3 whole entry): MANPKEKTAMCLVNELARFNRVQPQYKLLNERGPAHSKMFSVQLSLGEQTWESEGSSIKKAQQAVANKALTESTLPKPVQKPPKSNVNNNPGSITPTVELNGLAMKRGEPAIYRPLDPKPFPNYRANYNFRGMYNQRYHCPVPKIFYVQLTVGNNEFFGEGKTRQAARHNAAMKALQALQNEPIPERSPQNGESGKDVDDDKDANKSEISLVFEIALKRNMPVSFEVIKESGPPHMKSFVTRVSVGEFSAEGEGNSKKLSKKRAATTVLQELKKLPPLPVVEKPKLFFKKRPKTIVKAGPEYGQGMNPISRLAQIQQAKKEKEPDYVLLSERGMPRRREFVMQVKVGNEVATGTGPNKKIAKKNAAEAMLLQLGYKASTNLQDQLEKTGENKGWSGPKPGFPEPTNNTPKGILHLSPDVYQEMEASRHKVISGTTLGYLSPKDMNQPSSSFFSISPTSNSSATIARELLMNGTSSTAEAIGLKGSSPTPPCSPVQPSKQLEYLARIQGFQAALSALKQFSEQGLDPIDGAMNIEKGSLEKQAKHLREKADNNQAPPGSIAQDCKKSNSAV
Chain of DDX20 (Q9UHI6 whole entry): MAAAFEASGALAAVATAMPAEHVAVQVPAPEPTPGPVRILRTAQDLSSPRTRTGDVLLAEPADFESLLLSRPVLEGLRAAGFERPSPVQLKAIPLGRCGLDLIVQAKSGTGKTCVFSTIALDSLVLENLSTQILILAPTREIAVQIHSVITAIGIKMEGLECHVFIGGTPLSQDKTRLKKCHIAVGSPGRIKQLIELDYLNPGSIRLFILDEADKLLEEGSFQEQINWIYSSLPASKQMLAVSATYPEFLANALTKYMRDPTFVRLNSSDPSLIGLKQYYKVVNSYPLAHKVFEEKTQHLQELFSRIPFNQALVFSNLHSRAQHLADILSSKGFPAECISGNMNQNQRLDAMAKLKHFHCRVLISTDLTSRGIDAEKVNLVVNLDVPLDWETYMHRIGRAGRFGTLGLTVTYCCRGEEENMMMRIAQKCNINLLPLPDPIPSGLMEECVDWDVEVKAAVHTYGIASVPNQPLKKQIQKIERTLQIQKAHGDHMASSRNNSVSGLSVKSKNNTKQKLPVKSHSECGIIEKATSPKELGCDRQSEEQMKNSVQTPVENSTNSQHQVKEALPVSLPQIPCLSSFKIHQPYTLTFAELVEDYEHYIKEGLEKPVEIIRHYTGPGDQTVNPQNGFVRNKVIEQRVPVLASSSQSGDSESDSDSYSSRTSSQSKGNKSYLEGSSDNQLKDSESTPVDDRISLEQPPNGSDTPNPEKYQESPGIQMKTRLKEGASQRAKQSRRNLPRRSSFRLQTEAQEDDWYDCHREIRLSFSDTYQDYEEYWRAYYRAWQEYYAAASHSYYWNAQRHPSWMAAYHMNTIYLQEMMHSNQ
Chain of HIST1H1E (P10412 2-219 limits assumed): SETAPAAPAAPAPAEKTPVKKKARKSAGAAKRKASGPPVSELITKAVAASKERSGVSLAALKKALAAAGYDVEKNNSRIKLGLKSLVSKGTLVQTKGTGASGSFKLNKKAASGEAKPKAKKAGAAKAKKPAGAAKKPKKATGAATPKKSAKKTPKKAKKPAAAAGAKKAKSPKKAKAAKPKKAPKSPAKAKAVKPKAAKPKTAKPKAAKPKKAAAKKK

IgG control (Millipore Sigma 12-371) (antibody)
co-IP mass spectrometry count (DNAJA2): 0
co-IP mass spectrometry count (RPL27A): 3
co-IP mass spectrometry count (SSRP1): 0
co-IP mass spectrometry count (MTDH): 0
co-IP mass spectrometry count (HNRNPU): 2
co-IP mass spectrometry count (DEFA3): 3
co-IP mass spectrometry count (DDX20): 0
co-IP mass spectrometry count (PSMA7): 0
co-IP mass spectrometry count (TAGLN): 0
co-IP mass spectrometry count (SRSF1): 5
co-IP mass spectrometry count (HIST1H1E): 2
co-IP mass spectrometry count (PBXIP1): 0
co-IP mass spectrometry count (RPL5): 0
co-IP mass spectrometry count (TXN): 3
co-IP mass spectrometry count (NCCRP1): 4
co-IP mass spectrometry count (RPL19): 2
co-IP mass spectrometry count (RPS2): 10
co-IP mass spectrometry count (SRSF3): 4
co-IP mass spectrometry count (RPS23): 6
co-IP mass spectrometry count (RPL3): 3
co-IP mass spectrometry count (LIMA1): 3
co-IP mass spectrometry count (RPS19): 5
co-IP mass spectrometry count (RPS8): 7

C-terminal FLAG tagged B3GNT2 (from UniProt Q9NY97 1-397) (enzyme)
co-IP mass spectrometry count (GALNT2 (human)): 2
co-IP mass spectrometry count (SDF4 (human)): 7
co-IP mass spectrometry count (ILF3 (human)): 5
co-IP mass spectrometry count (RPL26 (human)): 12
co-IP mass spectrometry count (ZC3HAV1 (human)): 4
co-IP mass spectrometry count (CCT7 (human)): 2
co-IP mass spectrometry count (ARF4 (human)): 4
co-IP mass spectrometry count (UGGT1 (human)): 5
co-IP mass spectrometry count (STAU2 (human)): 2
co-IP mass spectrometry count (MAGT1 (human)): 2
co-IP mass spectrometry count (EPRS (human)): 4
co-IP mass spectrometry count (SLC27A4 (human)): 2
co-IP mass spectrometry count (SLC25A5 (human)): 30
co-IP mass spectrometry count (RPS4X (human)): 23
co-IP mass spectrometry count (CTHRC1 (human)): 2
co-IP mass spectrometry count (EIF4A1 (human)): 6
